Experimental data from the RNAGym collection of RNA variant scans (doi:10.7554/elife.80360).

B1: Hairpin Ribozyme (parent)
chain: GUCCUCUUUCACGUGCGCGUGAAAGAGAGAAGUGAACCAGAGAAACACACGUUGUGGUAUAUUACCUGGUA

Variants of: B1
Experiment: self-cleavage, relative activity (ratio to wild type); higher = more cleavage; co-transcriptional

Variant	self-cleavage
GUCCUCUUUCACGUGCGCGUUAAAGAGAGAAGUGAACCAGAGAAACACACGUUUUGGUAUAUUACCUGGUA	0.329
GUCCUCUUCCACGUGCGCGUGAAAGAGAGAAGUGAACCAGAGAAACACACCUUGUGGUAUAUUACCUGGUA	0.761
GUCCUCUUUCACGUGCGCCUGAAAGAGAGAAGUGAACCAGAGAAACACACGUUGUGCUAUAUUACCUGGUA	0.25
GUCCUCUUUCACGUGCGCGUGAAAGAGAGAAUUGAACCAGAGAAACACACGUUGUGGUGUAUUACCUGGUA	0.181
GUCCUCUUUCACGUGCGCGUGAAAGAGUGAAGUGAACCAGAGAAACACACGUUGUGGUAUUUUACCUGGUA	0.12
GUCCUCUUUCACGUGCGCGUGAAAGAGAGAAGCGAACCAGAGAAACACACGUUGUGGUAUAUUACAUGGUA	0.0633
GUCCUCUUUCACGUGCGCGUGAAAGAGAGAAGUGAACCAGAGAAACACAGGUUGUGGCAUAUUACCUGGUA	0.297
GUCCUCUUUCACGUGCGCGUGAAAGAGAGAAGGGAACCAGAGCAACACACGUUGUGGUAUAUUACCUGGUA	0.0935
GUCCUCUUUCACGUGCGCGUGAAAAAGAGAAGUGAACCAGGGAAACACACGUUGUGGUAUAUUACCUGGUA	0.494
GUCCUCUUUCACGUGCGCGUGAAAGAGAGAAGUGAAACAGAGAAACACACGUUGUGGUAUAUAACCUGGUA	0.163
GUCCUCUUUCACGCGCGCGUGAAAGAGAGAAGUGAACCAGAGAAACACACGUUGUGGUAUAUUACUUGGUA	0.408
GUCCUCUUUCACGUGCGCGUGAAAGAGAGAAGUGAAACAGAGAAACACACGUUGUGGUAUAUUACCUGGAA	0.368
GUCCUCUUUCACGUGCGCGUGAAAGAGAGAAGUGAACCAGCGAAACACACGUAGUGGUAUAUUACCUGGUA	0.786
GUGCUCUUUCACCUGCGCGUGAAAGAGAGAAGUGAACCAGAGAAACACACGUUGUGGUAUAUUACCUGGUA	0.321
CUCCUCUUUCACGUGCGCGUGAAAGAGAGAAGUGAGCCAGAGAAACACACGUUGUGGUAUAUUACCUGGUA	0.105
GUCCUCUUUCACUUGCGCGUGAAAGAGAGAAGUGAACCAGAGAAACACACGAUGUGGUAUAUUACCUGGUA	0.83
GUCCUCUUUCACGUGGGCGUGAAAGAGAGAAGUGAACCAGAGAAACACACGUUGUGGUAUAUUACCUGGUU	0.552
GUCCUCUUUCACGUGCGCGUGAAAGAGAGAAGUGAACCAGAGAAACACACGUUGUCGAAUAUUACCUGGUA	0.2
GUCCUCUUUCACGUGCGCGUGAAAGAGAGAAGUGAACCAGAGAAACACACGUUGUGGUAUAUUAACUGGGA	0.562
GUCCUCUUUCACGUGCGCGUGAUAUAGAGAAGUGAACCAGAGAAACACACGUUGUGGUAUAUUACCUGGUA	0.216
AUCCUCUUUCACGUGCGCGUGAAAGAGAGAAGUGAAUCAGAGAAACACACGUUGUGGUAUAUUACCUGGUA	0.196
GUCCUCUUUCACGUGCGCGUGAAAGAGAGAAGUGAACCCGAGAAACAAACGUUGUGGUAUAUUACCUGGUA	0.171
GUCCUCUUUCACGUGCGCGGGAAAGUGAGAAGUGAACCAGAGAAACACACGUUGUGGUAUAUUACCUGGUA	0.683
GUCCUCUUUCACGUGCGCGUGAAAAAGAGAAGUGAAUCAGAGAAACACACGUUGUGGUAUAUUACCUGGUA	0.494
AUCCCCUUUCACGUGCGCGUGAAAGAGAGAAGUGAACCAGAGAAACACACGUUGUGGUAUAUUACCUGGUA	0.269
GUCCUCUUUCACGUGCGCGUGAAAGAGAGAAGUGAACGAGAGAAACACACGUUGUGGUAUAUUACCUGGCA	0.157

Variant	self-cleavage
GUCCUCUUUCACGUGCGAGUGAAAGAGAGAAGUGAACCAGAGAAACAGACGUUGUGGUAUAUUACCUGGUA	0.0794
GUCCUGUUUCACGUGCGCGUGAAAGAGAGAAGUGAACCAGAGAAACACACGUUGUAGUAUAUUACCUGGUA	0.149
GUCCUCAUUCACGUGCGCGUGAAAGAGAGAAGUGAACCAGAGAAACACACGUUGUGGUAUAUUACCUGGUC	1.34
GUCCUCUUUCACGUGCGCGUGAAAGAGAGUAGUGAACCAGAGAAACACACGUUGUGGUAGAUUACCUGGUA	0.0766
GUCCUCUUUCACGUGCGCGUGAAAGAGAGAAGUGAACCAGAGAAACACCCGUUGUUGUAUAUUACCUGGUA	0.23
GUCAUCUUUCACGUGCGCGUGAAAGAGAGAAGUGAACCUGAGAAACACACGUUGUGGUAUAUUACCUGGUA	0.0907
GUCCUCUUUCACGUGCGUGUGAAAGAGAGAAGUGAACCAGAGAAACACACGUUGCGGUAUAUUACCUGGUA	0.318
GACCUCUUUCACGUGCGCGAGAAAGAGAGAAGUGAACCAGAGAAACACACGUUGUGGUAUAUUACCUGGUA	0.198
GUCCUCUUUCACGUGCGCGUGAAAGAGAGAAGUGAACCAGAGAAACAAACGUUGUGGUAUAUUUCCUGGUA	0.0412
GUACUCUUUCACGUGCGCGUGAAAGAGAGAAGUGAACAAGAGAAACACACGUUGUGGUAUAUUACCUGGUA	0.215
GUACUCUUUCACGUGCGCGUGAAAGAGCGAAGUGAACCAGAGAAACACACGUUGUGGUAUAUUACCUGGUA	0.648
GUCCACUUUCAUGUGCGCGUGAAAGAGAGAAGUGAACCAGAGAAACACACGUUGUGGUAUAUUACCUGGUA	0.314
GUCCUCUUUCACGUGCACGCGAAAGAGAGAAGUGAACCAGAGAAACACACGUUGUGGUAUAUUACCUGGUA	1.13
GUCCUCUUUCACGUGAGCGUGAAAGAGAGAAGCGAACCAGAGAAACACACGUUGUGGUAUAUUACCUGGUA	0.2
CUCCUCUUUCACGUGCGCGUGAAAGAGAGAAGUGAAUCAGAGAAACACACGUUGUGGUAUAUUACCUGGUA	0.177
GGCCUCUUUCACGUGCGCGUCAAAGAGAGAAGUGAACCAGAGAAACACACGUUGUGGUAUAUUACCUGGUA	0.364
GUCCUCCUUCACGUGCGCGUGAAAGAGAGAAGUGAACCAGAGAAACACACGAUGUGGUAUAUUACCUGGUA	0.82
GUCCUCUUUCAAGUGCGCGUGAAAGAGAGAAGUGAACCAGAGAAACACAGGUUGUGGUAUAUUACCUGGUA	0.389
GUCAUCUUUCACGUGCGCGUGAAAGAGAGAAGUGAACCAGAGAAACACACGUUGUGGUAUAUUCCCUGGUA	0.156
GUCCUCUUUCACGUGCGCGUGAAAGAGAGAAGUGAACCAGCGAAACACACGUUGUGGUAUAUUAGCUGGUA	0.247
GUCCUCUUUCAGGUGCGCGUGAAAGAGAGAAGUGAACCAGAGAAACACAUGUUGUGGUAUAUUACCUGGUA	0.291
GUCCUCUUUCACGUACGCGUGAAAGAGAGAAGUGAACCAGAGAAACACACGUUGUAGUAUAUUACCUGGUA	0.135
GUCCUCUUUCACGUGCCCGUCAAAGAGAGAAGUGAACCAGAGAAACACACGUUGUGGUAUAUUACCUGGUA	0.494
GUCCUGUUUCACGUGCGCGUGAAAGAGAGAAGUGAACCAGACAAACACACGUUGUGGUAUAUUACCUGGUA	0.157
GUCCUCUUUCACGUGCGUGUGAAAGAGAGAAGUGAACCAGAGAAACACACGUUGUGGUAUAUUACCUGGGA	0.973
GUCCUCUUUCAAGUGCGCGUGAAAGAGAGAAGUGAACCAGAGAAACACACGUUGUGGGAUAUUACCUGGUA	0.708

Variant	self-cleavage
GUCCUCUUUCACGUGCGCGUGAAAGAGUGAAGUGACCCAGAGAAACACACGUUGUGGUAUAUUACCUGGUA	0.286
GUCCUCUUUCACGUGCGCGUGAAAGAGAGAAGUGAACCAGAGAACCACACGUUGUGGUAUAUUACCUGUUA	0.215
GUCCUCUUUCACGUGCGCGUCAAAGAGACAAGUGAACCAGAGAAACACACGUUGUGGUAUAUUACCUGGUA	0.119
GUCCUCUUGCACGUGCGCGUGAAAGAGAGAAGUGAACCAGAGAAACACACGUUGUGGUAUAUUACCUGGUU	0.601
GUCCUCUUUCACGUGCGCGUGAAAGAGAGAAGUGAACAAGAGAAACACACGUUGUGGUUUAUUACCUGGUA	0.134
GUCCUCUUUCACGUGCGCGUGAAAGAGAGAAGUGAACCAGAUAAACACACGUUGUGGUAUAUUCCCUGGUA	0.18
GUCCUCUUUCGCGUGCGCGUGAAAGAGAGAAGUGAACCAGAGAAACACACGUUGUGGUAUAUGACCUGGUA	0.296
GUCCUCUUUCACGUCCGCGUGAAAGAGAGAAUUGAACCAGAGAAACACACGUUGUGGUAUAUUACCUGGUA	0.113
GUCCUCUUUCACGUGCGCGGGAAAGAGAGAAGUGAACCAGGGAAACACACGUUGUGGUAUAUUACCUGGUA	0.687
GUCCUCUUUCACGUGCGCGUGAAAGAGAGAAGUGAACCAGAGAAUCACACUUUGUGGUAUAUUACCUGGUA	0.209
GUCCACUUUCACGUGCGCGUGAAAGAGAGAAGUGAACCAGCGAAACACACGUUGUGGUAUAUUACCUGGUA	0.554
GUCCUCAUUCACGUGCGCGUUAAAGAGAGAAGUGAACCAGAGAAACACACGUUGUGGUAUAUUACCUGGUA	0.683
GUCCUCUUUGACGUGCGCGUGAAAGAGAGAAGUGAACCAGAGAUACACACGUUGUGGUAUAUUACCUGGUA	0.133
GUCCUCUUUCACGUGCGCGUUAAAGAGAGAAGUGAACCAGAGAAACACACGUUGUGGUAUAUUACAUGGUA	0.236
GUCCUCUUUCACGUACGCGUGAAAGAGAGAAGUGAACCAGAGAAACACACGUUGUGGUAUAUUAUCUGGUA	0.235
GUCCUCUUUCACGUGCGCGUGAAAGCGAGAAGUGAACCAGAGAAACACACGUUGUGGUAUAUUACCUCGUA	0.147
GUCCUCUGUCACGUGCGCGUGAAAGAGAGGAGUGAACCAGAGAAACACACGUUGUGGUAUAUUACCUGGUA	0.119
GUCCUCUUUCACGUGCGCGUGAAAGAGAGAAGUGAACCAGAGAAACACACGUUAUGGUAUAGUACCUGGUA	0.0558
GUCCUCUUUCACGUGCGCGUGAAAGAGAGAAGUGAACCAGCCAAACACACGUUGUGGUAUAUUACCUGGUA	0.218
GUCCUCUUUCACGUGCGCGUGAAAGAGAGAAGUGAACCAGACAAACACACAUUGUGGUAUAUUACCUGGUA	0.415
GUCCUCUUUCACGUGCGCGUGAAAGAGAGAAGUGAACUAGAGAAACACAUGUUGUGGUAUAUUACCUGGUA	0.249
GUCCUCUUUCACGUACGCGUGAAAGAGAGAAGUGAACCAGAGAAACUCACGUUGUGGUAUAUUACCUGGUA	0.17
GUGCUCUUUCACGUGCGCGUGAAAGAGUGAAGUGAACCAGAGAAACACACGUUGUGGUAUAUUACCUGGUA	0.647
GUCCUCUUUCACGUGCGGGUGAAAGAGAGAAGUGAACCAGAGAAACACACGUUGUUGUAUAUUACCUGGUA	0.2
